In patent US20210284740A1:

Legend:
[1] = target: peripheral lymph node addressin (PNAd) expressed on CHO cells; experiment: cell-based ELISA on fixed CHO-PNAd cells, HRP-conjugated secondary antibody, TMB, OD450
[2] = target: peripheral lymph node addressin (PNAd) expressed on CHO cells; experiment: cell-based ELISA on fixed CHO-PNAd cells, antibody titrated 1 ng/ml to 300 ug/ml, fitted curve
[3] = target: peripheral lymph node addressin (PNAd) expressed on CHO cells; experiment: cell-based ELISA on fixed CHO-PNAd cells; compared with the reference MECA79

Molecule | EC50 (read off the curve) [1] [µg/mL] | Kd [2] [nM] | binding affinity higher than MECA79 (percent) [3] [%]
MECA79 monoclonal antibody | 5 | 1.41 | –
MHA112 monoclonal antibody (mAb) (antibody, mouse IgM, V domains shown) VH: QVQLKESGPGLVAPSQSLSITCTVSGFSLTSYGVDWVRQPPGKGLEWLGVIWGGGSTNYNSALMSRLSISKDNSKSQVFLKMNSLQTDDTAMYYCAKHSKGGYFDVWGTGTTVTVSS VL: EIVLTQSPAITAASLGQKVTITCSASSSVSYMHWYQQKSGTSPKPWIYEISKLASGVPARFSGSGSGTSYSLTISSMEAEDAAIYYCQQWNYPLITFGAGTKLELK | 4 | 0.97 | 30
